Substitutions are numbered along the chain they refer to. Names and notes keep the numbering of the source.
T1: EsCas13d, nuclease-dead (Eubacterium siraeum, UniProt B0MS50, R295A;H300A;R849A;H854A)
T1 sequence: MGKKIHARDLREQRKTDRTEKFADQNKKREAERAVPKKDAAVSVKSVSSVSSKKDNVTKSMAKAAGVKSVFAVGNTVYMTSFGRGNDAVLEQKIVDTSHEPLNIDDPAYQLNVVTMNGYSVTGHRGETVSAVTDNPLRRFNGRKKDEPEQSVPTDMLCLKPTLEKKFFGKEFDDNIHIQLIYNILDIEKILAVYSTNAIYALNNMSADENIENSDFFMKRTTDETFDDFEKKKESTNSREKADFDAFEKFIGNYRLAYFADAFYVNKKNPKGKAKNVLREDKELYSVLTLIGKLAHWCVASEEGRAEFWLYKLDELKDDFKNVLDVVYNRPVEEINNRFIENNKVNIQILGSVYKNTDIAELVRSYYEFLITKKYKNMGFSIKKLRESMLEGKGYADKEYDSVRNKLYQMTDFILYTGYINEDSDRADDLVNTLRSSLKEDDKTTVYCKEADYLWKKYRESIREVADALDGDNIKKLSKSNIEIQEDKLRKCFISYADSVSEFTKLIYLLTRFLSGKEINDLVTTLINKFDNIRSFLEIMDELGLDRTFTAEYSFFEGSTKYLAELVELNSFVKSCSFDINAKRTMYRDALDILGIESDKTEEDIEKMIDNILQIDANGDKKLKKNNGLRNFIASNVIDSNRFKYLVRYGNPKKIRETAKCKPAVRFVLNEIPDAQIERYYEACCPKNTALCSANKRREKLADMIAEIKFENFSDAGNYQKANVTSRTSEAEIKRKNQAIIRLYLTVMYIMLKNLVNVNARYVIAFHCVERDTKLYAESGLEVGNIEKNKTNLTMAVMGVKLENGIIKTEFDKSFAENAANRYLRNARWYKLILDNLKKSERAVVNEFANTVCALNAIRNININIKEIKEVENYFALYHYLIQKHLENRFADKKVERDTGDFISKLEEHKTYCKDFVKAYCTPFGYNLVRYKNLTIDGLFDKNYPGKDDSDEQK

B1: target 1 insA 3' of 12,insG 3' of 7 (mixed)
RNA 1: CACCCGUGCAAAAAUGCAGGGGUCUAAAACUGAGCGGAUAACCUCUCUAUGG
RNA 2: GGGAAUGGAUCCACAUCUACGAAUUCGUACCAUAGAGAGGAUUAUCGCGCUCACCGAGAUCGGAAGAGCACACGU
B2: target 1 C4U,G12C (mixed)
RNA 1: B1 RNA 1
RNA 2: GGGAAUGGAUCCACAUCUACGAAUUCGUACCAUAGAGAGCUUAUCCGUUCACCGAGAUCGGAAGAGCACACGU
B3: target 1 C6G,A14G (mixed)
RNA 1: B1 RNA 1
RNA 2: B2 RNA 2 with A38G, C40G, C46G, U48C
B4: target 1 insC 3' of 20,insC 3' of 12 (mixed)
RNA 1: B1 RNA 1
RNA 2: GGGAAUGGAUCCACAUCUACGAAUUCGUACCACUAGAGAGGCUUAUCCGCUCACCGAGAUCGGAAGAGCACACGU
B5: target 1 U11A,G13C (mixed)
RNA 1: B1 RNA 1
RNA 2: B2 RNA 2 with G39C, C40G, U41A, U48C
B6: target 1 insG 3' of 9,insU 3' of 5 (mixed)
RNA 1: B1 RNA 1
RNA 2: B1 RNA 2 with A41U, U43A, A44G, G47C, C48G, G49U
B7: target 1 insC 3' of 8,insA 3' of 4 (mixed)
RNA 1: B1 RNA 1
RNA 2: B1 RNA 2 with A41U, U43A, A44U, U45C, G47C, C48G, G49C, C50A
B8: target 1 insA 3' of 19,insU 3' of 7 (mixed)
RNA 1: B1 RNA 1
RNA 2: B4 RNA 2 with C33U, U34A, C42U, U44A, A45U, U46C, C47U
B9: target 1 U8G,C21U (mixed)
RNA 1: B1 RNA 1
RNA 2: B2 RNA 2 with C31U, C40G, U44G, U48C
B10: target 1 insC 3' of 13,insA 3' of 5 (mixed)
RNA 1: B1 RNA 1
RNA 2: B1 RNA 2 with G40C, A41G, G47C, C48G, G49A
B11: target 1 U10G,G12C (mixed)
RNA 1: B1 RNA 1
RNA 2: B2 RNA 2 with U42G, U48C
B12: target 1 U8A,G12A (mixed)
RNA 1: B1 RNA 1
RNA 2: B2 RNA 2 with C40A, U44A, U48C
B13: target 1 insA 3' of 11,insC 3' of 5 (mixed)
RNA 1: B1 RNA 1
RNA 2: B1 RNA 2 with A41U, U42A, G47C, C48G, G49C
B14: target 1 insU 3' of 13,insA 3' of 11 (mixed)
RNA 1: B1 RNA 1
RNA 2: B1 RNA 2 with G40U, A41G, U43A, A44U, U45A, C46U, G47C
B15: target 1 insA 3' of 22,insC 3' of 16 (mixed)
RNA 1: B1 RNA 1
RNA 2: B4 RNA 2 with C31A, A32C, C33A, G38C, A39G, G40A, C42G
B16: target 1 insC 3' of 5,insA 3' of 3 (mixed)
RNA 1: B1 RNA 1
RNA 2: B1 RNA 2 with A41U, U43A, A44U, U45C, G49C, C50U, U51A

Molecular target: T1, EsCas13d, nuclease-dead
Test: crRNA (strand 1, pre-loaded); Mg2+; 40 mM Tris-HCl pH 7.5, 150 mM NaCl, 6 mM MgCl2, 1 mM DTT, 0.1% Tween-20, 0.2 mg/ml BSA; 25 C; 10 min per concentration, then washed
Conditions: tags: His6-TwinStrep-SUMO cleaved; N-terminal SNAP kept (SNAP-Surface 488); label: 3' end held by stalled T7 RNA polymerase

Binder	Kd
B1	27.7 ± 2 nM
B2	22.4 ± 3.3 nM
B3	13.5 ± 1.3 nM
B4	11.9 ± 2.4 nM
B5	42 ± 7 nM
B6	14.4 ± 0.9 nM
B7	12 ± 0.9 nM
B8	41.8 ± 2.3 nM
B9	8.34 ± 0.26 nM
B10	6.7 ± 1.3 nM
B11	22.7 ± 1.3 nM
B12	8.6 ± 0.8 nM
B13	12.7 ± 1.2 nM
B14	12.3 ± 1.4 nM
B15	~60 nM
B16	30 ± 4 nM
